These results are taken from patent US20030040043A1 (published 2003).

The assay has as its target T1, GAL4bd-FtsA fusion (E. coli, UniProt P04386 1-147; P0ABH0 1-420).
T1 construct: also called pAS2-1-FtsA; SHp100
The assay is described as follows: yeast two-hybrid, GAL4 system, plates lacking histidine and AT.

B1: GAL4ad-FtsZ^D373G fusion (pGAD424) (other)
chain: MFEPMELTNDAVIKVIGVGGGGGNAVEHMVRERIEGVEFFAVNTDAQALRKTAVGQTIQIGSGITKGLGAGANPEVGRNAADEDRDALRAALEGADMVFIAAGMGGGTGTGAAPVVAEVAKDLGILTVAVVTKPFNFEGKKRMAFAEQGITELSKHVDSLITIPNDKLLKVLGRGISLLDAFGAANDVLKGAVQGIAELITRPGLMNVDFADVRTVMSEMGYAMMGSGVASGEDRAEEAAEMAISSPLLEDIDLSGARGVLVNITAGFDLRLDEFETVGNTIRAFASDNATVVIGTSLDPDMNDELRVTVVATGIGMDKRPEITLVTNKQVQQPVMDRYQQHGMAPLTQEQKPVAKVVNDNAPQTAKEPDYLGIPAFLRKQAD
notes: also called pGAD424-FtsZ^D373G; SHp201
For the molecule B1, the binding result is “no binding”.

B2: GAL4ad-FtsZ^D373G,P375L fusion (pGAD424) (other)
chain: MFEPMELTNDAVIKVIGVGGGGGNAVEHMVRERIEGVEFFAVNTDAQALRKTAVGQTIQIGSGITKGLGAGANPEVGRNAADEDRDALRAALEGADMVFIAAGMGGGTGTGAAPVVAEVAKDLGILTVAVVTKPFNFEGKKRMAFAEQGITELSKHVDSLITIPNDKLLKVLGRGISLLDAFGAANDVLKGAVQGIAELITRPGLMNVDFADVRTVMSEMGYAMMGSGVASGEDRAEEAAEMAISSPLLEDIDLSGARGVLVNITAGFDLRLDEFETVGNTIRAFASDNATVVIGTSLDPDMNDELRVTVVATGIGMDKRPEITLVTNKQVQQPVMDRYQQHGMAPLTQEQKPVAKVVNDNAPQTAKEPDYLGILAFLRKQAD
notes: also called pGAD424-FtsZ^D373G,P375L; SHp203
On to B2, for which the binding result is given as “no binding”.
